Data as given in publication PMC8144621, “A two-hybrid system reveals previously uncharacterized protein–protein interactions within the Helicobacter pylori NIF iron–sulfur maturation system” (Scientific Reports, 2021).

How the values were obtained:
[1] = biological target: T1, ApbC-(His)6, purified recombinant (Helicobacter pylori strain 26695, UniProt O24999 1-368); experiment: cross-linking; purified proteins (15 µM) incubated alone or together for 60 min at 25 °C with 10 mM dimethyl suberimidate (DMS), no ATP; SDS 4-20% gradient PAGE, Coomassie; settings: both partners purified
T1 construct: H. pylori strain 26695 ApbC/HP0207, whole native hp0207 (apbC) ORF without its stop codon, cloned NdeI-XhoI in pET21b (pET-ApbC); predicted mass with tag 41.1 kDa; The name ApbC-(His)6 and the cloning without stop codon in pET21b put the tag at the C-terminus; the methods of the cross-linking call the protein 'native ApbC'; also called hexahistidine tagged-ApbC^WT; source: E. coli BL21 RIL, …
T1 sequence (looked up): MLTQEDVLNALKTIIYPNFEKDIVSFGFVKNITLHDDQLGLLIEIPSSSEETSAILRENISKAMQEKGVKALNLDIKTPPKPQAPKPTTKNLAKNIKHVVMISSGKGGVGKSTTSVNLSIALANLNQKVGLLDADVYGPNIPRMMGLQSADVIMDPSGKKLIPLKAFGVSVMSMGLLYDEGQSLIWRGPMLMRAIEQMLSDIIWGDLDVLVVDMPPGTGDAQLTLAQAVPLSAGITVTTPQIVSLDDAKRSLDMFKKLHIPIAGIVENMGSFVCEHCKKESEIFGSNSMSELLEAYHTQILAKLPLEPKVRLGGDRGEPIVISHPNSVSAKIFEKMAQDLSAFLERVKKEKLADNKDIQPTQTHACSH

[2] = biological target: the molecule itself; experiment: as above

B1: Nfu (HP1492), purified recombinant (natural protein, Helicobacter pylori, UniProt O26025 1-89, looked up)
chain: MIEFSDEDLQKPVRIVIEKIRPYLLKDGGNIEVLGVKSMKIYVALEGACKTCSSSKITLKNVIERQLKMDIHPNLEVVCLENAKEFDKL
notes: H. pylori Nfu/HP1492; also called recombinant Nfu; HpNfu
[1]
  binding result: binds
[2]
  stoichiometry N: 2
